{"source": "paper PMC6506517", "about": "“Structure of Mycobacterium tuberculosis phosphatidylinositol phosphate synthase reveals mechanism of substrate binding and metal catalysis” (Communications Biology, 2019)", "proteins": {"B1": {"name": "Mycobacterium tuberculosis phosphatidylinositol phosphate synthase (PgsA1) (enzyme)", "chain": "MSKLPFLSRAAFARITTPIARGLLRVGLTPDVVTILGTTASVAGALTLFPMGKLFAGACVVWFFVLFDMLDGAMARERGGGTRFGAVLDATCDRISDGAVFCGLLWWIAFHMRDRPLVIATLICLVTSQVISYIKARAEASGLRGDGGFIERPERLIIVLTGAGVSDFPFVPWPPALSVGMWLLAVASVITCVQRLHTVWTSPGAIDRMAIPGKGDRENLYFQ", "notes": "also called M. tuberculosis PgsA1; Rv2612c"}}, "biological_target": "the molecule itself", "test": "crystal structure", "data": [{"protein": "B1", "values": [{"measurement": "binding result", "value": "binds"}]}]}
